Measured values reported in patent US20160205946A1, “ENZYMATIC IN SITU PREPARATION OF PERACID-BASED REMOVABLE ANTIMICROBIAL COATING COMPOSITIONS AND METHODS OF USE” (THE CHEMOURS COMPANY FC, LLC, priority 2009, published 2016).

Experiment: pNPA microplate assay (enzyme specific activity)
Assay type: biochemical
Conditions: 30 °C, pH 7.2
Experimental: Into each of four wells of a 96-well microplate were added 170 μL of potassium phosphate buffer (50 mM, pH 7.2) and either 10 μL of 0.1 mg total protein/mL of cell lysate, or 10 μL of 0.02 mg total protein/mL of a spray-dried enzyme solution. The plate was covered and placed in a microplate reader (Molecular Devices SPECTRAmax® 384 Plus), then mixed for several seconds and equilibrated at 30° C. for 10 minutes. To each well of the plate was then simultaneously added 20 μL of a 30 mM pNPA solution prepared by mixing (immediately prior to use) 0.6 mL of 100 mM pNPA in acetonitrile with 1.4 mL of 50 mM potassium phosphate buffer (pH 7.2). The change in absorbance at 400 nm was measured over 1 minute of reaction time. The background rate of pNPA hydrolysis (subtracted from the rate of hydrolysis measured in the presence of enzyme) was separately measured in four wells by substituting 10 μL/well of potassium phosphate buffer (50 mM, pH 7.2) for cell lysate or enzyme-containing solution. The extinction coefficient for para-nitrophenol, measured at pH 7.2 in a 1-cm path length cell, was 10,909 L·cm^−1·mol^−1. One pNPA Unit of enzyme activity is equivalent to the amount of protein that catalyzes the hydrolysis of one micromole of pNPA in one minute.

Molecule	Specific activity of spray-dried enzyme powder [pNPA U/mg protein]
T. maritima perhydrolase spray-dried enzyme powder: Spray-dried wild type acetyl xylan esterase from Thermotoga maritima, 27.8 wt % protein (protein, UniProt Q9WXT2 1-325, looked up, spray-dried powder, Spray-dried wild type acetyl xylan esterase from Thermotoga maritima, 27.8 wt % protein) Cephalosporin-C deacetylase: MAFFDLPLEELKKYRPERYEEKDFDEFWEETLAESEKFPLDPVFERMESHLKTVEAYDVTFSGYRGQRIKGWLLVPKLEEEKLPCVVQYIGYNGGRGFPHDWLFWPSMGYICFVMDTRGQGSGWLKGDTPDYPEGPVDPQYPGFMTRGILDPRTYYYRRVFTDAVRAVEAAASFPQVDQERIVIAGGSQGGGIALAVSALSKKAKALLCDVPFLCHFRRAVQLVDTHPYAEITNFLKTHRDKEEIVFRTLSYFDGVNFAARAKIPALFSVGLMDNICPPSTVFAAYNYYAGPKEIRIYPYNNHEGGGSFQAVEQVKFLKKLFEKG	86.1
T. maritima C277S perhydrolase spray-dried enzyme powder: Spray-dried T. maritima acetyl xylan esterase C277S mutant, 25.5 wt % protein (protein, UniProt Q9WXT2 1-325, looked up, variant C277S, spray-dried powder, Spray-dried T. maritima acetyl xylan esterase C277S mutant, 25.5 wt % protein) Cephalosporin-C deacetylase: MAFFDLPLEELKKYRPERYEEKDFDEFWEETLAESEKFPLDPVFERMESHLKTVEAYDVTFSGYRGQRIKGWLLVPKLEEEKLPCVVQYIGYNGGRGFPHDWLFWPSMGYICFVMDTRGQGSGWLKGDTPDYPEGPVDPQYPGFMTRGILDPRTYYYRRVFTDAVRAVEAAASFPQVDQERIVIAGGSQGGGIALAVSALSKKAKALLCDVPFLCHFRRAVQLVDTHPYAEITNFLKTHRDKEEIVFRTLSYFDGVNFAARAKIPALFSVGLMDNISPPSTVFAAYNYYAGPKEIRIYPYNNHEGGGSFQAVEQVKFLKKLFEKG	129.5
